According to patent publication US20190075806A1, “PROTEINASE B AND LACTASE SOLUTION USING ITS PROPERTIES AND METHOD FOR PRODUCING THE SAME” (GODO SHUSEI CO., LTD., priority 2016, published 2019):
“Also recorded” adds a separate entry of the source. Like-named read-outs stand apart in the source and are kept apart here.

Experiments:
[1] = Substrate specificity, Bz-Arg-pNa; assay type: biochemical
[2] = test system: BSA; test: Substrate specificity, BSA; assay type: biochemical
[3] = test system: lactase; test: Lactase-fragmenting activity (LDU); assay type: biochemical, Kluyveromyces; conditions: for SUBSTRATE SPECIFICITY: substrate Lactase
Source text: In addition, the “lactase-fragmenting action” in the claims and description can be an action by which the neutral lactase around 120 kDa in SDS-PAGE is fragmented, and preferably the fragments of the fragmented lactase show the neutral lactase activity. As a method for evaluating an influence on the fragmentation activity of PrB, the “lactase-fragmenting activity” can be also used as its index. This “lactase-fragmenting activity” indicates the enzyme activity of fragmenting the lactase protein, and an actual index can be defined as follows. When the band strength around 120 kDa of a sample to which PrB is not added is regarded as 100%, the band area relative value around 120 kDa of samples obtained by adding 1 to 4 mACU of PrB is found as a relative value (1 ACU means the amount of enzyme which raises the absorbance at 428 nm by 1 at 30° C. for an hour using azocasein as a substrate). Next, the amount of enzyme added when the lactase band after reaction at 30° C. for an hour decreases by 20% compared to when PrB is not added is regarded as 1 LDU (Lactase Degradation Unit) of lactase-fragmenting activity.

[4] = Substrate specificity, Ac-Phe-pNa; assay type: biochemical
[5] = test system: lactase; test: Fragmentation of lactase confirmed by SDS-PAGE; assay type: biochemical, Kluyveromyces
Procedure: First, the state of fragmentation of lactase in a lactase solution can be confirmed by SDS-PAGE using 10% polyacrylamide gel. For example, a lactase solution is diluted with purified water as needed, and mixed with Sample Buffer for SDS-PAGE at 1:1, and electrophoresis samples are prepared by heat treatment at 100° C. for 3 minutes. Next, the standard and electrophoresis samples are applied to 10% acrylamide gel, and subjected to electrophoresis. The molecular weight of lactase can be also roughly estimated by comparison with the standard. As the standard, CLEARLY Stained Protein Ladder (Takara #3454A) and the like are used. The gel after electrophoresis is subjected to protein staining using a CBB staining solution (BIO-RAD #161-0786).
The gel after staining was scanned as a grayscale image with a scanner GT-X820 manufactured by Seiko Epson Corporation. Furthermore, the concentration of each band (protein amount) can be also measured by Image J software (NIH, Bethesda, Md.). […]
As prior consideration, the following test was carried out about a relationship between the fragmentation and heat stability of lactase. […] As the conditions of the heat stability test, using an enzyme solution (lactase solution) diluted to 0.25 NLU/g, the activity after treatment at 50° C. for 10 minutes was calculated as the remaining activity (%) to that of an untreated sample. […]

[6] = test system: FITC-casein; test: FITC-casein-decomposing activity; assay type: biochemical; conditions: for SUBSTRATE SPECIFICITY: substrate FITC-casein
[7] = test system: Azocoll; test: Azocoll-decomposing activity; assay type: biochemical; conditions: for SUBSTRATE SPECIFICITY: substrate Azocoll
[8] = Substrate specificity, Bz-Tyr-pNa; assay type: biochemical
[9] = test system: Casein; test: Substrate specificity, Casein; assay type: biochemical
[10] = test system: Azocasein; test: Substrate specificity, Azocasein; assay type: biochemical
Source text: As a method for evaluating an influence on the fragmentation activity of PrB, the “lactase-fragmenting activity” can be also used as its index. This “lactase-fragmenting activity” indicates the enzyme activity of fragmenting the lactase protein, and an actual index can be defined as follows. When the band strength around 120 kDa of a sample to which PrB is not added is regarded as 100%, the band area relative value around 120 kDa of samples obtained by adding 1 to 4 mACU of PrB is found as a relative value (1 ACU means the amount of enzyme which raises the absorbance at 428 nm by 1 at 30° C. for an hour using azocasein as a substrate). Next, the amount of enzyme added when the lactase band after reaction at 30° C. for an hour decreases by 20% compared to when PrB is not added is regarded as 1 LDU (Lactase Degradation Unit) of lactase-fragmenting activity.

[11] = pH 7.0, cited from earlier work
[12] = FITC-casein-decomposing activity
[13] = FITC-casein-decomposing activity, listed as K. lactis

B1: PrB: proteinase B derived from Kluyveromyces lactis, neutral protease with lactase-fragmenting activity, SEQ ID NO:1 (protein, listed as Kluyveromyces lactis)
chain: SFNTQNSAPWGLARISHREKLNLGSFNKYLYDDDAGKGVTAYVVDTGVNVNHKDFDGRAVWGKTIPKDDPDVDGNGHGTHCAGTIGSVHYGVAKNADIVAVKVLRSNGSGTMSDVVKGVEYVAEAHKKAVEEQKKGFKGSTANMSLGGGKSPALDLAVNAAVKAGVHFAVAAGNENQDACNTSPAAAENAITVGASTLSDERAYFSNWGKCVDIFGPGLNILSTYIGSDTATATLSGTSMATPHVVGLLTYFLSLQPDADSEYFHAAGGITPSQLKKKLIDFSTKNVLSDLPEDTVNY
For B1, the “SUBSTRATE SPECIFICITY” value [1] was 0, the “SUBSTRATE SPECIFICITY” value [2] was 0 and the INHIBITOR ([3]; lactase-fragmenting activity) was “AEBSF”. The “OPTIMUM REACTION TEMPERATURE” value ([3]; lactase-fragmenting activity) was 40 °C, the “OPTIMUM REACTION pH” value ([3]; lactase-fragmenting activity) was “pH 7.0” and the “SUBSTRATE SPECIFICITY” value [3] was “high substrate specificity”. For the same molecule, the “SUBSTRATE SPECIFICITY” value ([3]; listed as K. lactis) was 1159, the “SUBSTRATE SPECIFICITY” value [4] was 0 and the “state of fragmentation of lactase (SDS-PAGE)” value [5] was “fragmentation of lactase proceeded”. The “amount of PrB at which fragmentation was not caused” value ([5]; with respect to 1 NLU of lactase activity, added to F-1, 30° C. for 20 hours) was 0.26 ng, the ACTIVATOR [6, 12] was “Ca^2+” and the “HEAT STABILITY” value [6, 12] was 40 °C. For the same molecule, the INHIBITOR [6, 12] was “Cu^2+, Fe^2+”, the “OPTIMUM REACTION TEMPERATURE” value [6, 12] was “about 40 °C” and the “OPTIMUM REACTION pH” value [6, 12] was “about 8.0 pH”. The “pH STABILITY” value [6, 12] was 5.0 to 8.0 pH, the “OPTIMUM REACTION TEMPERATURE” value [6, 13] was 40 °C and the “OPTIMUM REACTION pH” value [6, 13] was “pH 8.0”. For the same molecule, the “pH STABILITY” value [6, 13] was “pH 5.0~8.0”, the “SUBSTRATE SPECIFICITY” value [6] was “high substrate specificity” and the “SUBSTRATE SPECIFICITY” value ([6]; listed as K. lactis) was 78. For the same molecule, the “SUBSTRATE SPECIFICITY” value [7] was 1.9, the “SUBSTRATE SPECIFICITY” value [8] was 0 and the “SUBSTRATE SPECIFICITY” value [9] was 0. The “SUBSTRATE SPECIFICITY” value [10] was 1.

B2: lactase described in Patent Literature 1: lactase from cultures of a strain of Kluyveromyces lactis (JP 60-18394 B) (protein, UniProt P00723 1-1025, looked up)
Beta-galactosidase: MSCLIPENLRNPKKVHENRLPTRAYYYDQDIFESLNGPWAFALFDAPLDAPDAKNLDWETAKKWSTISVPSHWELQEDWKYGKPIYTNVQYPIPIDIPNPPTVNPTGVYARTFELDSKSIESFEHRLRFEGVDNCYELYVNGQYVGFNKGSRNGAEFDIQKYVSEGENLVVVKVFKWSDSTYIEDQDQWWLSGIYRDVSLLKLPKKAHIEDVRVTTTFVDSQYQDAELSVKVDVQGSSYDHINFTLYEPEDGSKVYDASSLLNEENGNTTFSTKEFISFSTKKNEETAFKINVKAPEHWTAENPTLYKYQLDLIGSDGSVIQSIKHHVGFRQVELKDGNITVNGKDILFRGVNRHDHHPRFGRAVPLDFVVRDLILMKKFNINAVRNSHYPNHPKVYDLFDKLGFWVIDEADLETHGVQEPFNRHTNLEAEYPDTKNKLYDVNAHYLSDNPEYEVAYLDRASQLVLRDVNHPSIIIWSLGNEACYGRNHKAMYKLIKQLDPTRLVHYEGDLNALSADIFSFMYPTFEIMERWRKNHTDENGKFEKPLILCEYGHAMGNGPGSLKEYQELFYKEKFYQGGFIWEWANHGIEFEDVSTADGKLHKAYAYGGDFKEEVHDGVFIMDGLCNSEHNPTPGLVEYKKVIEPVHIKIAHGSVTITNKHDFITTDHLLFIDKDTGKTIDVPSLKPEESVTIPSDTTYVVAVLKDDAGVLKAGHEIAWGQAELPLKVPDFVTETAEKAAKINDGKRYVSVESSGLHFILDKLLGKIESLKVKGKEISSKFEGSSITFWRPPTNNDEPRDFKNWKKYNIDLMKQNIHGVSVEKGSNGSLAVVTVNSRISPVVFYYGFETVQKYTIFANKINLNTSMKLTGEYQPPDFPRVGYEFWLGDSYESFEWLGRGPGESYPDKKESQRFGLYDSKDVEEFVYDYPQENGNHTDTHFLNIKFEGAGKLSIFQKEKPFNFKISDEYGVDEAAHACDVKRYGRHYLRLDHAIHGVGSEACGPAVLDQYRLKAQDFNFEFDLAFE
In the case of B2, the deactivated ([11]; 50° C. for 10 minutes) is given as 45% and the deactivated ([11]; 55° C. for 10 minutes) is given as 100%.

B3: S. cerevisiae: PrB derived from S. cerevisiae, comparison enzyme (protein, UniProt P09232 281-574, looked up)
Cerevisin: EFDTQNSAPWGLARISHRERLNLGSFNKYLYDDDAGRGVTSYVIDTGVNINHKDFEKRAIWGKTIPLNDEDLDGNGHGTHCAGTIASKHYGVAKNANVVAVKVLRSNGSGTMSDVVKGVEYAAKAHQKEAQEKKKGFKGSTANMSLGGGKSPALDLAVNAAVEVGIHFAVAAGNENQDACNTSPASADKAITVGASTLSDDRAYFSNWGKCVDVFAPGLNILSTYIGSDDATATLSGTSMASPHVAGLLTYFLSLQPGSDSEFFELGQDSLTPQQLKKKLIHYSTKDILFDIPE
With B3 the “HEAT STABILITY” value ([7]; Azocoll-decomposing activity) was 25 °C, the INHIBITOR ([7]; Azocoll-decomposing activity) was “PCMB, PMSF,; also recorded: HgCl2” and the “OPTIMUM REACTION pH” value ([7]; Azocoll-decomposing activity) was “pH 7.0”. The “SUBSTRATE SPECIFICITY” value [7] was 9.1, the “SUBSTRATE SPECIFICITY” value [8] was 0.2 and the “SUBSTRATE SPECIFICITY” value [10] was 1.
